The numbers were not newly measured in article PMC9442343, which cites them from elsewhere.

In this series the target is IL-18 (Homo sapiens) (UniProt Q14116).
IL-18 (Homo sapiens), sequence (Q14116 37-193): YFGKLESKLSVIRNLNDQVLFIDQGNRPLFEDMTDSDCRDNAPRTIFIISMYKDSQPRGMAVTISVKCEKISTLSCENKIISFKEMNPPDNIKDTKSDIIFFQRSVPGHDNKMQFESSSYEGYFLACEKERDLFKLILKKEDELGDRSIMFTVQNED

IL-18BP, sequence (O95998 31-194): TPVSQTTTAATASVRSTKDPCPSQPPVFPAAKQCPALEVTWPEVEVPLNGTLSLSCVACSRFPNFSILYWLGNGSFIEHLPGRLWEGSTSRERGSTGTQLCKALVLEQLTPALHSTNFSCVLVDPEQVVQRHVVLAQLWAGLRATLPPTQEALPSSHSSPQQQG

Usually Kd stands for the free concentration of one partner at which half of the binding sites on the other are occupied at equilibrium, for simple one-to-one binding. For IL-18BP (from UniProt O95998), the Kd was 0.4 nM.
